Target: the molecule itself
Test: cryo-EM structure; YES complex of EcMraY(T23P), protein E and SlyD, obtained with the methodologies of ref. 31; focused refinement of MraY alone; processed with cryosparc v3.2.0

B1: E. coli MraY(T23P) (enzyme)
chain: MLVWLAEHLVKYYSGFNVFSYLPFRAIVSLLTALFISLWMGPRMIAHLQKLSFGQVVRNDGPESHFSKRGTPTMGGIMILTAIVISVLLWAYPSNPYVWCVLVVLVGYGVIGFVDDYRKVVRKDTKGLIARWKYFWMSVIALGVAFALYLAGKDTPATQLVVPFFKDVMPQLGLFYILLAYFVIVGTGNAVNLTDGLDGLAIMPTVFVAGGFALVAWATGNMNFASYLHIPYLRHAGELVIVCTAIVGAGLGFLWFNTYPAQVFMGDVGSLALGGALGIIAVLLRQEFLLVIMGGVFVVETLSVILQVGSFKLRGQRIFRMAPIHHHYELKGWPEPRVIVRFWIISLMLVLIGLATLKVR
notes: MraY (phospho-MurNAc-pentapeptide transferase) of Escherichia coli with the T23P substitution, as it stood in the YES complex for cryo-EM; also called EcMraY(T23P)
- stoichiometry N: 2

Source: doi:10.1101/2023.08.01.551478, “A feedback control mechanism governs the synthesis of lipid-linked precursors of the bacterial cell wall” (bioRxiv, 2023)
